Stoichiometry N data for one substance are collected here from article PMC7773282.

The target in assay [1] is human proton-activated chloride channel (PAC), reconstituted in MSP3D1 lipid nanodiscs (human) (UniProt Q9H813). Description: cryo-EM structure.
The target is the same in assay [2]. Description: cryo-EM structure. This is another data set of the same source.

Like-named read-outs stand apart in the source and are kept apart here.

Turning to “human proton-activated chloride channel (PAC), reconstituted in MSP3D1 lipid nanodiscs (from UniProt Q9H813 1-350) (natural protein)”, the stoichiometry N in assay [1] and in assay [2] was 3 each time.
